Laboratory results published in paper PMC3776475.

How the values were obtained:
[1] = target: JR-FL SOSIP.R6-IZ-D7324 gp140 expressed in 293T cells (HIV-1 isolate JR-FL (subtype B)); test: native gel or EMSA
[2] = target: KNH1144 SOSIP.R6 MPER gp140 expressed in 293T cells with furin and kifunensine (HIV-1 isolate KNH1144 (subtype A)); test: native gel or EMSA
[3] = target: KNH1144 SOSIP.R6 MPER gp140 expressed in 293S GnTI^-/- cells with furin (HIV-1 isolate KNH1144 (subtype A)); test: SEC
[4] = target: KNH1144 SOSIP.R6 MPER gp140 expressed in 293T cells with furin, without kifunensine (HIV-1 isolate KNH1144 (subtype A)); test: native gel or EMSA
[5] = target: JR-FL SOSIP.R6-IZ-D7324 gp140 expressed in 293S GnTI^-/- cells (HIV-1 isolate JR-FL (subtype B)); test: SEC
[6] = target: JR-FL SOSIP.R6-IZ-D7324 gp140 expressed in 293S GnTI^-/- cells (HIV-1 isolate JR-FL (subtype B)); test: native gel or EMSA

Substance: JR-FL SOSIP.R6-IZ-D7324 gp140 expressed in 293T cells
- stoichiometry N [1]: 3

Substance: KNH1144 SOSIP.R6 MPER gp140 expressed in 293T cells with furin and kifunensine (complex)
- stoichiometry N [2]: 3

Substance: KNH1144 SOSIP.R6 MPER gp140 expressed in 293S GnTI^-/- cells with furin (complex)
- stoichiometry N [3]: 3

Substance: KNH1144 SOSIP.R6 MPER gp140 expressed in 293T cells with furin, without kifunensine (complex)
- stoichiometry N [4]: 3

Substance: JR-FL SOSIP.R6-IZ-D7324 gp140 expressed in 293S GnTI^-/- cells
- stoichiometry N [5]: 3
- stoichiometry N [6]: 3
